Results reported in patent US20020086017, “GA binding protein and neurite derived growth factors for use in the treatment of muscular dystrophy” (published 2002).

How the values were obtained:
[1] = tested on: GABP-alpha + GABP-beta1 co-expressed in L6 cells (Homo sapiens); experiment: cell_activity; settings: luciferase reporter in L6 cells, n=24, p<0.001
[2] = target: GABP-alpha/GABP-beta1 heterodimer (Homo sapiens, UniProt Q06546;Q06547 Q06546:1-454,Q06547:2-395); experiment: EMSA; enhanced relative to GABP-alpha alone, multimeric complexes; 20 mM HEPES pH 7.6, 1 mM MgCl2, 40 mM KCl, on ice; settings: tags: GST fusions (pGEX), reconstituted in vitro; label: 32P 5'-end
Protocol: (§1) Nuclear extracts were prepared from dishes of L6 myotubes cultured to confluence and total proteins quantified, as previously described [Ausubel F et al; Current Protocols in Molecular Biology; Wiley, N.Y., 1995]. The double stranded UtroNBox probe used was 5′ATCTTCcggaa C 3′ (SEQ ID NO: 7) (N-box underlined, ets-domain italicised and lower case) which was end-labelled with g-P³² ATP using T4 Polynucleotide kinase. Typically, radiolabelled probe (1 ng c. 10-100,000 cpm) was incubated on ice for 20 minutes with 10 μg nuclear extracts or 1 μl GST fusion proteins in a 12.5 μL reaction buffer containing 20 mM HEPES pH 7.6, 1 mM MgCl₂, 0.1 mM EGTA, 40 mM KCl, 10% Glycerol, 1 μg ssDNA. Competition with cold probe was performed with pre-incubation with 1000× excess of unlabelled UtroNBox probe. Complexes were resolved by electrophoresis at 200 V for 2 Hours on 4% Acrylamide gels in 25 mM Tris, 192 mM Glycine, 1 mM EDTA (for nuclear extracts) and 12.5 mM Tris, 96 mM Glycine, 0.5 mM EDTA (for fusion proteins) prior to autoradiographic analysis using a Storm Phosphorimager (Molecular Dynamics, Sunnyvale, Calif.).
(§2) Electrophoretic mobility shift assay was performed with the radiolabelled oligonucleotide UtroNBox probe and purified GABP-α and GABP-β fusion proteins. […]

GABP-beta1 = GABP-beta1 (Homo sapiens, UniProt Q06547 Q06547:2-395); experiment: EMSA; GABP-beta alone; 20 mM HEPES pH 7.6, 1 mM MgCl2, 40 mM KCl, on ice; settings: tags: GST fusion (pGEX); label: 32P 5'-end
Protocol: as §1, §2

GABP-alpha = target: T1, GABP-alpha (Homo sapiens, UniProt Q06546 Q06546:1-454); experiment: EMSA; competed by 1000x unlabelled probe; 20 mM HEPES pH 7.6, 1 mM MgCl2, 40 mM KCl, on ice; settings: tags: GST fusion (pGEX); label: 32P 5'-end
T1 sequence: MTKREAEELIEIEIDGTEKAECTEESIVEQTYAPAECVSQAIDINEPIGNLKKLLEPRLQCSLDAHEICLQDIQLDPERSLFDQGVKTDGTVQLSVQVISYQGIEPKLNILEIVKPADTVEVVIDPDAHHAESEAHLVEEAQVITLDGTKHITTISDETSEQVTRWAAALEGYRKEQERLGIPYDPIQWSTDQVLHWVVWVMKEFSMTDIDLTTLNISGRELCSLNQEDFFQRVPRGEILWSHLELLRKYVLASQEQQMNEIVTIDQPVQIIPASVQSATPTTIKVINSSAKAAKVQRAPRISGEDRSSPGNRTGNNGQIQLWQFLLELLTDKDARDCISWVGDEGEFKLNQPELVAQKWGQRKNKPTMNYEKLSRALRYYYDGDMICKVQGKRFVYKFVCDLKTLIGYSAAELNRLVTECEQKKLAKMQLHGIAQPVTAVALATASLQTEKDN
Protocol: as §1, §2

Chain of GABP-alpha/GABP-beta1 heterodimer (Q06547 2-395, one chain of several): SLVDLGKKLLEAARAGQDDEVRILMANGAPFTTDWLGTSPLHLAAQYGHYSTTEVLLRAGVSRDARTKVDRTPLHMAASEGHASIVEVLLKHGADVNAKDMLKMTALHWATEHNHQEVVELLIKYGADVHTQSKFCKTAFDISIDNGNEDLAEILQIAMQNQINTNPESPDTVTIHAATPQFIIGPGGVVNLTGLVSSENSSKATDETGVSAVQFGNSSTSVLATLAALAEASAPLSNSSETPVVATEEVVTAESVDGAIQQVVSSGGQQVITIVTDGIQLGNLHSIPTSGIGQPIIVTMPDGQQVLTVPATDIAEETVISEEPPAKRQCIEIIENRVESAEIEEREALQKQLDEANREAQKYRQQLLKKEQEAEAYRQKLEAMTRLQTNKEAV
Chain of GABP-beta1 (Q06547 2-395, one chain of several): as above

“human utrophin promoter in pPUBF luciferase reporter” was tested. Which activity [1] did it give?
Its activity is 238 % of control.

B1: UtroNBox probe (dsDNA)
DNA 1: ATCTTCCGGAAC
DNA 2: GTTCCGGAAGAT
What does the source list for B1?
binding result [2]: binds; binding result (GABP-beta1): no binding; binding result (GABP-alpha): binds
